# Measurements as given in the Human Domainome abundance scans (Beltran et al. 2025).
# ± gives the uncertainty stated by the source.
# B1: COUP transcription factor 1, residues 83 to 159; numbered along this chain, P10589 (parent)
# chain: HIECVVCGDKSSGKHYGQFTCEGCKSFFKRSVRRNLTYTCRANRNCPIDQHHRNQCQYCRLKKCLKVGMRREAVQRG
# Variants of: B1
# Assay: abundance fitness (aPCA) (normalised: wild type 0, dead -1); higher = more abundant; growth selection in yeast, the domain comes from the species named
# Conditions: Homo sapiens
row,Variant,abundance fitness
1,H52E,0.08 ± 0.051
2,H52M,-0.019 ± 0.052
3,H52N,-0.1 ± 0.055
4,H52Q,0.095 ± 0.047
5,H52P,0.09 ± 0.043
6,E72Y,-0.177 ± 0.078
7,E72F,-0.316 ± 0.078
8,E72P,-0.418 ± 0.076
9,E72M,-0.262 ± 0.052
10,H51D,-0.022 ± 0.065
11,H51A,0.039 ± 0.044
12,H51M,0.025 ± 0.066
13,Y16R,-0.31 ± 0.08
14,Y16K,-0.209 ± 0.18
15,Y16N,-0.539 ± 0.2
16,Y16S,-0.047 ± 0.07
17,Y16D,0.111 ± 0.09
18,Y16F,0.201 ± 0.14
19,Y16W,0.132 ± 0.068
20,Y16L,-0.152 ± 0.089
21,V67N,-0.125 ± 0.072

row,Variant,abundance fitness
1,V67L,-0.118 ± 0.038
2,V67G,-0.26 ± 0.039
3,V67S,-0.117 ± 0.045
4,R44F,-0.207 ± 0.11
5,R44Q,-0.048 ± 0.065
6,R44Y,-0.432 ± 0.2
7,R44H,-0.003 ± 0.096
8,R44V,-0.292 ± 0.048
9,R44P,-0.405 ± 0.08
10,A42W,-0.123 ± 0.086
11,A42S,0.047 ± 0.084
12,R60F,0.132 ± 0.059
13,R60L,0.205 ± 0.034
14,R60P,-0.602 ± 0.092
15,G8C,-0.182 ± 0.16
16,G8T,-0.237 ± 0.19
17,G8K,0.165 ± 0.15
18,G8D,0.177 ± 0.12
19,I2C,-0.186 ± 0.47
20,I2W,-0.502 ± 0.17
21,I2V,-0.648 ± 0.14

row,Variant,abundance fitness
1,F19W,-0.01 ± 0.06
2,F19E,0.166 ± 0.069
3,F19V,-0.269 ± 0.064
4,T37I,-0.038 ± 0.061
5,T37V,0.044 ± 0.051
6,T37F,-0.101 ± 0.12
7,T37H,0.133 ± 0.072
8,T37R,0.092 ± 0.05
9,T37Y,-0.254 ± 0.1
10,V32S,-0.336 ± 0.067
11,V32G,-0.378 ± 0.047
12,V32L,-0.26 ± 0.066
13,V32K,-0.181 ± 0.14
14,R53L,-0.081 ± 0.065
15,R53K,-0.218 ± 0.14
16,R53S,-0.178 ± 0.076
17,R53P,0.111 ± 0.088
18,R53M,-0.099 ± 0.11
19,S12I,-0.027 ± 0.068
20,S12H,-0.096 ± 0.088
21,S12Y,-0.489 ± 0.11

row,Variant,abundance fitness
1,S12L,-0.247 ± 0.049
2,S12T,0.165 ± 0.047
3,S12Q,0.007 ± 0.064
4,V5E,-0.042 ± 0.1
5,V5L,0.192 ± 0.093
6,V5Q,0.252 ± 0.2
7,V5Y,0.393 ± 0.15
8,V5A,0.228 ± 0.084
9,Q50G,-0.149 ± 0.035
10,Q50D,0.03 ± 0.071
11,Q50A,0.063 ± 0.037
12,Q50I,0.117 ± 0.089
13,Q50S,-0.086 ± 0.054
14,S31A,0.036 ± 0.064
15,S31V,-0.155 ± 0.061
16,S31G,-0.598 ± 0.079
17,D9F,-0.045 ± 0.29
18,D9P,-0.863 ± 0.24
19,D9T,-0.047 ± 0.092
20,D9Q,0.104 ± 0.12
